The text below walks through data of publication doi:10.1101/2021.12.10.472131 (bioRxiv, 2021).

In this assay the target is T1, Par-3 PDZ1-APM (residues 309-987) (UniProt O96782 309-987).
T1 sequence (looked up): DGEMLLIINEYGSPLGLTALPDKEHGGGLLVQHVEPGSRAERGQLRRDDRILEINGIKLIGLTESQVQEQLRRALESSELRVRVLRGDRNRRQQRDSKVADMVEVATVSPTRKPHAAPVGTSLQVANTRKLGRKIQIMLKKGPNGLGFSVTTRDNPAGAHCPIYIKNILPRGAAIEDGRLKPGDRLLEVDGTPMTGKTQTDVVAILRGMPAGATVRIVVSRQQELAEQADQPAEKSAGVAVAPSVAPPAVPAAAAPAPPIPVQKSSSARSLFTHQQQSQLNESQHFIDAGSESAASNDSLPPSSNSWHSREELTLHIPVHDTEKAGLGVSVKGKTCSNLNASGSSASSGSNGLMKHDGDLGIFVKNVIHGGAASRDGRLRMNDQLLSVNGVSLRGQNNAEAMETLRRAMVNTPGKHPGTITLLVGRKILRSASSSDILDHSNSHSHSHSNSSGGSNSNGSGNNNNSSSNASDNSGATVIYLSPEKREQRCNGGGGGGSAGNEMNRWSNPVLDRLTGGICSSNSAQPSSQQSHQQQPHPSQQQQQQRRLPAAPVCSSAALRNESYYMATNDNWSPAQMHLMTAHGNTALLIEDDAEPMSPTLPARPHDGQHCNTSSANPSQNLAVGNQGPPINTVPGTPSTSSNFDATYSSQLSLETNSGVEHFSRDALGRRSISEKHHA
In words: supernatant depletion assay.

B1: his aPKC kinase domain-PBM (residues 259-606) (domain or fragment, UniProt A1Z9X0 259-606, looked up)
chain: YSLNDFELIRVIGRGSYAKVLMVELRRTRRIYAMKVIKKALVTDDEDIDWVQTEKHVFETASNHPFLVGLHSCFQTPSRLFFVIEFVRGGDLMYHMQRQRRLPEEHARFYAAEISLALNFLHEKGIIYRDLKLDNVLLDHEGHIKLTDYGMCKEGIRPGDTTSTFCGTPNYIAPEILRGEDYGFSVDWWALGVLLYEMLAGRSPFDLAGASENPDQNTEDYLFQVILEKTIRIPRSLSVRAASVLKGFLNKNPADRLGCHRESAFMDIVSHPFFKNMDWELLERKQVTPPFKPRLDSDRDLANFPPEFTGEAVQLTPDDDHVIDNIDQSEFEGFEYVNPLLMSLEDCV
Regarding B1, the binding result was “binds”.
